B1: BBSome complex member BBS5 (Homo sapiens), Q8N3I7 (parent)
chain: MSVLDALWEDRDVRFDLSAQQMKTRPGEVLIDCLDSIEDTKGNNGDRGRLLVTNLRILWHSLALSRVNVSVGYNCILNITTRTANSKLRGQTEALYILTKCNSTRFEFIFTNLVPGSPRLFTSVMAVHRAYETSKMYRDFKLRSALIQNKQLRLLPQEHVYDKINGVWNLSSDQGNLGTFFITNVRIVWHANMNDSFNVSIPYLQIRSIKIRDSKFGLALVIESSQQSGGYVLGFKIDPVEKLQESVKEINSLHKVYSASPIFGVDYEMEEKPQPLEALTVEQIQDDVEIDSDGHTDAFVAYFADGNKQQDREPVFSEELGLAIEKLKDGFTLQGLWEVMS
partner: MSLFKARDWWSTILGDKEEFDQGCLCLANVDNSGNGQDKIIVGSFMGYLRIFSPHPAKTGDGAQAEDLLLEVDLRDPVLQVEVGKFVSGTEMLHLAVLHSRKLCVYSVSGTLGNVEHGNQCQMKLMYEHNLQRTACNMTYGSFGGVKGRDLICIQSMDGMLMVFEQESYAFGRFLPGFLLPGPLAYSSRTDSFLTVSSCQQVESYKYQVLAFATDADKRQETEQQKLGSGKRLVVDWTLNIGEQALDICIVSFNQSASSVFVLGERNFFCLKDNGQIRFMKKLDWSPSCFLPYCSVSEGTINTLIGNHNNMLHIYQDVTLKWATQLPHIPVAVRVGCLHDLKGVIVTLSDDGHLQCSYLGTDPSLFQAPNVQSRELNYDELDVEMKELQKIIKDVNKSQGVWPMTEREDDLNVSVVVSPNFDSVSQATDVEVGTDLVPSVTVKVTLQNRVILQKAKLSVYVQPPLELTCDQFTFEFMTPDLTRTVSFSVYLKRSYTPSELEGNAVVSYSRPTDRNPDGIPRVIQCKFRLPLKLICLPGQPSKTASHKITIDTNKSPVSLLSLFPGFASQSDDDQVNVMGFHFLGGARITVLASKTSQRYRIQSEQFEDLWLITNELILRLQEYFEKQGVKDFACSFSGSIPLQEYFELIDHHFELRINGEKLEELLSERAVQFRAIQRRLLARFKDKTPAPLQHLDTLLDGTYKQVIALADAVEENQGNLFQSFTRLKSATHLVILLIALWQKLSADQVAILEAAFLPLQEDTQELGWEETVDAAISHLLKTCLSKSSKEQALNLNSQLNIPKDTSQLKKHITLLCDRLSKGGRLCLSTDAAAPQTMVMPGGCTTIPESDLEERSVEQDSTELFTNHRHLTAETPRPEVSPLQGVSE

Variants of: B1
Settings: with pthb1_human BBS9, Q3SYG4

Variant | effect of a mutation on the interaction
E289K | with no effect
E289A | with no effect
D311E | with no effect
D311A | with no effect
D297E | with no effect
D297A | with no effect
D297K | with no effect
A301E | with no effect
A301K | with no effect
S292K | with no effect
S292E | with no effect
S292A | with no effect
Q283E | with no effect
Q283A | with no effect
Q283K | with no effect
Y302K | disrupting interaction strength
Y302E | with no effect
Y302A | with no effect
D305K | with no effect
D305A | with no effect
D305E | with no effect
E282A | with no effect
E282K | with no effect

Variant | effect of a mutation on the interaction
H295K | with no effect
H295E | with no effect
H295A | with no effect
F299A | with no effect
F299E | with no effect
F299K | with no effect
T296K | with no effect
T296A | with no effect
T296E | with no effect
D286E | with no effect
D286A | with no effect
D286K | with no effect
T280E | with no effect
T280A | with no effect
T280K | with no effect
Q309K | disrupting interaction strength
Q309A | with no effect
Q309E | with no effect
V288K | with no effect
V288E | with no effect
V288A | with no effect
G306A | with no effect
G306K | with no effect

Variant | effect of a mutation on the interaction
G306E | with no effect
G294K | with no effect
G294A | with no effect
G294E | with no effect
I290K | with no effect
I290E | with no effect
I290A | with no effect
Q285E | with no effect
Q285A | disrupting interaction strength
Q285K | with no effect
D287K | with no effect
D287E | with no effect
D287A | with no effect
K308E | with no effect
K308A | with no effect
V281A | with no effect
V281K | with no effect
V281E | with no effect
N307E | with no effect
N307A | with no effect
N307K | with no effect
I284A | with no effect
I284E | with no effect

Variant | effect of a mutation on the interaction
I284K | with no effect
F303A | disrupting interaction strength
F303K | with no effect
F303E | with no effect
D293K | with no effect
D293E | with no effect
D293A | with no effect
L279K | with no effect
L279E | with no effect
L279A | with no effect
A304K | with no effect
A304E | with no effect
V300K | with no effect
V300A | with no effect
V300E | with no effect
A298E | with no effect
A298K | with no effect
Q310A | with no effect
Q310E | with no effect
Q310K | with no effect
D291A | with no effect
D291E | with no effect
D291K | with no effect

Source: IntAct's records for PubMed 29039417
